Measured values taken from patent publication US20240376225A1 (CHILDREN S MEDICAL CENTER, published 2024).
Like-named read-outs stand apart in the source and are kept apart here.

T1: human CD21 protein (human, UniProt P20023 21-971, limits assumed)
T1 construct: the Biacore set-up is not described; also called huCD21; CR2
T1 sequence (looked up): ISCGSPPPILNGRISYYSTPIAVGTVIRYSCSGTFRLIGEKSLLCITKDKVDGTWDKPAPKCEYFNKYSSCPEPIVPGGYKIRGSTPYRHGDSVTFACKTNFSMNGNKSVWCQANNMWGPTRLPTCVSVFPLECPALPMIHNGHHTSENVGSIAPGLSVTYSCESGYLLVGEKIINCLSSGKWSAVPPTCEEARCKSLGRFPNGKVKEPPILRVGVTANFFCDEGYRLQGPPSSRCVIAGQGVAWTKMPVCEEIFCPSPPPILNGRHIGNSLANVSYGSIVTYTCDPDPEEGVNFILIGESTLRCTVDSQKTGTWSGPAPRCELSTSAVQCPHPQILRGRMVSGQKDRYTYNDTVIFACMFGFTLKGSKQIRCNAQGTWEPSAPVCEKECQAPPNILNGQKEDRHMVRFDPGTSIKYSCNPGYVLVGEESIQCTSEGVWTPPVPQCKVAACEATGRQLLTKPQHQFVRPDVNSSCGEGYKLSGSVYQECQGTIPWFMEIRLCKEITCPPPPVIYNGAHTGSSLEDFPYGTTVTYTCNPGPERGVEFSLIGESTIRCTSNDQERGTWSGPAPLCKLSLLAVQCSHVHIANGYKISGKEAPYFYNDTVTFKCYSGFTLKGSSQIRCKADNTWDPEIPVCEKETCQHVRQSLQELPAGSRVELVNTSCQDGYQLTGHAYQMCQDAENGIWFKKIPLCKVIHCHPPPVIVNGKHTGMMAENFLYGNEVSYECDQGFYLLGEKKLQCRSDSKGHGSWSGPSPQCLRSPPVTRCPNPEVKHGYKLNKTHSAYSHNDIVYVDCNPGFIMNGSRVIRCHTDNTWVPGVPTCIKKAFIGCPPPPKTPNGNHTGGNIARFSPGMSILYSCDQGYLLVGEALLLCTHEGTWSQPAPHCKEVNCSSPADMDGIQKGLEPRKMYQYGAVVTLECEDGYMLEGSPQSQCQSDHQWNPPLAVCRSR

T2: human CD21 on Raji B cells or primary B cells (human, UniProt P20023 21-1033)
T2 sequence (looked up): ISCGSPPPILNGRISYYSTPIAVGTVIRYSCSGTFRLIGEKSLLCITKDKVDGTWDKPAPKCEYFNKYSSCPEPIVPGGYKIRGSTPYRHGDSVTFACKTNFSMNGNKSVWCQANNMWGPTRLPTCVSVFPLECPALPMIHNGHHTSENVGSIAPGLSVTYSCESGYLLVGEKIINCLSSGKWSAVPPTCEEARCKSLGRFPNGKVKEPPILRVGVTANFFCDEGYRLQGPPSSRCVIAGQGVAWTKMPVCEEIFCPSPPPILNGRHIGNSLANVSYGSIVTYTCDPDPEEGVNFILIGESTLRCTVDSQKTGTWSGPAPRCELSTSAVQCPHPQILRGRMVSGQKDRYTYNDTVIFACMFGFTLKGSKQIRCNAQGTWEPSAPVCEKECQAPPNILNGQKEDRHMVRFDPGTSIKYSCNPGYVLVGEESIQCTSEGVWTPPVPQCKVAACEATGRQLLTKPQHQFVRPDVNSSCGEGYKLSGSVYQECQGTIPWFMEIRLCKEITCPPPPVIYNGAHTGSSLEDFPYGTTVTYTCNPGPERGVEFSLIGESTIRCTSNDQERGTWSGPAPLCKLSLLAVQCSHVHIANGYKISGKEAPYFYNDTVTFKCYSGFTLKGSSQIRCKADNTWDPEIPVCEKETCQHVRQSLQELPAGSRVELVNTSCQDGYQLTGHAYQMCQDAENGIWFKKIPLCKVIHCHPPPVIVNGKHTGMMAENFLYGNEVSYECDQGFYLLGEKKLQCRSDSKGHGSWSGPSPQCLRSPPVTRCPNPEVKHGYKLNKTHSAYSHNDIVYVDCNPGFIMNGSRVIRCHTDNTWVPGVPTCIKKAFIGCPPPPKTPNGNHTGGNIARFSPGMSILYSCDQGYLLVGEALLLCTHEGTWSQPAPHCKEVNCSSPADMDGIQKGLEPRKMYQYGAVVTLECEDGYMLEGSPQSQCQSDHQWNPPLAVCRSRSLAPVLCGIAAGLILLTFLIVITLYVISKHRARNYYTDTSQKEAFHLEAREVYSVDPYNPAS


How the values were obtained:
[1] = biological target: cyno CD21 protein (cynomolgus monkey); test: SPR (Biacore)
[2] = biological target: cyno CD21 protein (cynomolgus monkey); test: SPR (Biacore); remark: listed apart in the source
human CD21 protein [3] = biological target: T1, human CD21 protein; test: SPR (Biacore)
human CD21 protein [4] = biological target: T1, human CD21 protein; test: SPR (Biacore); remark: listed apart in the source
[5] = biological target: cyno CD21 protein (cynomolgus monkey); test: SPR (Biacore), KD against Ab89
[6] = biological target: T2, human CD21 on Raji B cells or primary B …; test: cell-based or functional assay
[7] = biological target: T2, human CD21 on Raji B cells or primary B …; test: cell-based or functional assay; remark: listed apart in the source
human CD21 protein [8] = biological target: T1, human CD21 protein; test: SPR (Biacore), KD against Ab89
[9] = biological target: cyno CD21 protein (cynomolgus monkey); test: affinity KD; method not restated (Biacore elsewhere)
human CD21 protein [10] = biological target: T1, human CD21 protein; test: as above
insulin = insulin (UniProt P01308); test: polyreactivity ELISA on coated insulin; third number of the cell
human CD21 protein [11] = biological target: T1, human CD21 protein; test: affinity KD; method not restated (Biacore elsewhere); remark: listed apart in the source
human CD21 protein [12] = biological target: T1, human CD21 protein; test: SPR (Biacore); remark: listed apart in the source
[13] = biological target: T2, human CD21 on Raji B cells or primary B …; test: Raji B cell binding
[14] = biological target: T2, human CD21 on Raji B cells or primary B …; test: competition with human C3d on Raji B cells
[15] = biological target: T2, human CD21 on Raji B cells or primary B …; test: competition with human C3d on primary B cells

Chain of insulin (P01308 25-54 limits assumed, chain 1 of 2): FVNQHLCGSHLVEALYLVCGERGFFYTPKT
Chain of insulin (P01308 90-110 limits assumed, chain 2 of 2): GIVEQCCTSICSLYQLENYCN

| Binder | Kd [1] [nM] | Kd [2] [nM] | Kd (human CD21 protein [3]) [nM] | Kd (human CD21 protein [4]) [nM] | fold affinity improvement over parental Ab89 [5] [fold] | pAKT inhibition, IC50, nM; Primary B cells [6] [nM] | pAKT inhibition, IC50, nM; Raji B cells [6] [nM] | pAKT inhibition, IC50, nM; Primary B cells [7] [nM] | pAKT inhibition, IC50, nM; Raji B cells [7] [nM] | fold affinity improvement over parental Ab89 (human CD21 protein [8]) [fold] | Kd [9] [nM] | Kd (human CD21 protein [10]) [nM] | insulin-binding score (ratio to buffer well) (insulin) | Kd (human CD21 protein [11]) [nM] | Kd (human CD21 protein [12]) [nM] | EC50 [13] [nM] | IC50 [14] [nM] | IC50 [15] [nM] |
| --- | --- | --- | --- | --- | --- | --- | --- | --- | --- | --- | --- | --- | --- | --- | --- | --- | --- | --- |
| Ab423 (antibody, human IgG1, kappa, V domains shown, IgG1) VH: QVQLVQSGAEVKKPGSSVKVSCKASGGTFSSYAISWVRQAPGQGLEWMGRIIPILGIANYAQKFQGRVTITADKSTSTAYMELSSLRSEDTAVYYCAREDDISGYYQDWGQGTLVTVSS VL: EIVMTQSPATLSVSPGERATLSCRAGQSINSYLAWYQQKPGQAPRLLIYDASTRATGIPARFSGSGSGTEFTLTISSLQSEDFAVYYCQQYEYWYTFGQGTKLEIKR | 0.233 | 0.23 | 0.0399 | 0.039 | 92 | 7.94 | 14.9 | 7.94 | 14.9 | 1780 | 0.23 | 0.039 | 2 |  |  |  |  |  |
| Ab646 (antibody, human IgG1, kappa, V domains shown, IgG1) VH: QVQLVQSGAEVKKPGSSVKVSCKASGGELQTLAISWVRQAPGQGLEWMGRIIPILGIANYAQKFQGRVTITADKSTSTAYMELSSLRSEDTAVYYCAREEDISGYYQDWGQGTLVTVSS VL: EIVMTQSPATLSVSPGERATLSCRAGQSISSYLAWYQQKPGQAPRLLIYDASSRATGIPARFSGSGSGTEFTLTISSLQSEDFAVYYCQQYEYWYSFGQGTKLEIKR |  |  |  |  |  |  |  |  |  |  | 0.05 | 0.01 | 1 | 0.01 |  |  |  |  |
| Ab648 (antibody, human IgG1, kappa, V domains shown, IgG1) VH: QVQLVQSGAEVKKPGSSVKVSCKASGGELSTYAISWVRQAPGQGLEWMGRIIPILGIANYAQKFQGRVTITADKSTSTAYMELSSLRSEDTAVYYCAREEDISGYYQDWGQGTLVTVSS VL: EIVMTQSPATLSVSPGERATLSCRAGQSISSYLAWYQQKPGQAPRLLIYDASSRATGIPARFSGSGSGTEFTLTISSLQSEDFAVYYCQQYEYWYSFGQGTKLEIKR |  |  |  |  |  |  |  |  |  |  | 0.15 | 0.01 | 1 | 0.01 |  |  |  |  |
| Ab89 (antibody, human IgG1, kappa, V domains shown, IgG1; also called germlined derivative of Ab15) VH: QVQLVQSGAEVKKPGSSVKVSCKASGGTFSSYAISWVRQAPGQGLEWMGRIIPILGIANYAQKFQGRVTITADKSTSTAYMELSSLRSEDTAVYYCAREDDSSGYYQDWGQGTLVTVSS VL: EIVMTQSPATLSVSPGERATLSCRAGQSINSHLAWYQQKPGQAPRLLIYDASTRATGIPARFSGSGSGTEFTLTISSLQSEDFAVYYCQQYEYWYTFGQGTKLEIKR | 21.4 |  |  |  |  |  |  |  |  |  |  |  |  |  | 71.1 | 6.37 | 2.13 | 1.22 |
